Reference: patent publication US20230295324A1 (published 2023)
Where two headings read alike, the source gives them in different places.

Key:
[1] = target: T1, human OX40 on cells (CHO-K1/hu OX40) (human, UniProt P43489 29-277); assay: cell-based or functional assay
T1 sequence (looked up): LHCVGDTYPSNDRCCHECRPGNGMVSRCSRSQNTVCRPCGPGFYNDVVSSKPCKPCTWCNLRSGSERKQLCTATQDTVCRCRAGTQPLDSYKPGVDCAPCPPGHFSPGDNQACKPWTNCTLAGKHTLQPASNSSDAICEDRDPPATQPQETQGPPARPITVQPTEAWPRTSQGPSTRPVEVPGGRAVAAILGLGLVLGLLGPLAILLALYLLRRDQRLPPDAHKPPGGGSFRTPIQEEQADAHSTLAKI

[2] = target: T1, human OX40 on cells (CHO-K1/hu OX40); assay: FACS, CHO-K1/hu OX40 cells
Summary of the method: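 Binding of anti-human OX40 HCAb antibodies measured by flow cytometry on CHO-K1 cells stably overexpressing human OX40. Cells incubated with 3-fold serially diluted antibodies 1 h at 4 °C in the dark, washed, then secondary staining 30 min at 4 °C; fluorescence read by FACS.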

[3] = target: T2, human OX40 protein (Acro biosystem, #OX0-H5224) (human, UniProt P43489 29-216); assay: ELISA, coated human OX40 protein
T2 construct: Bought recombinant protein
T2 sequence (looked up): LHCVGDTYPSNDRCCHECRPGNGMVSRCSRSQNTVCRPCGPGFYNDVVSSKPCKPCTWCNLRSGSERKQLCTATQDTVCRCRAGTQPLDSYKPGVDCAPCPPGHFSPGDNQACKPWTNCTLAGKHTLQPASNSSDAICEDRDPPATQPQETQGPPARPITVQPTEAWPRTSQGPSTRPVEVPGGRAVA
Protocol: This example is intended to investigate the in vitro binding activity of the anti-OX40 HCAb monoclonal antibodies prepared in Example 1 to human and cynomolgus monkey OX40 proteins. The antibody binding assay at the protein level was performed using a human OX40 protein (Acro biosystem, #OX0-H5224) and a cynomolgus monkey OX40 protein (Novoprotein, #CB17). Briefly, a 384-well plate (PerkinElmer, #6007509) was coated with 1 μg/mL human OX40 protein and a cynomolgus monkey OX40 protein dissolved in PBS at 20 μL/well, and incubated at 4° C. overnight. The next day, the 384-well plate was washed three times with PBS containing 0.05% Tween (MEDICAGO, #09-9410-100), and blocked with PBS containing 2% milk (Bio-Rad, #170-6404) at 37° C. for 1 h. […] The plate was added with a stop buffer (BBI life sciences, #E661006-0200) at 20 μL/well, and read for OD₄₅₀₋₆₅₀ values using a plate reader (Molecular Devices, model: SpectraMax Plus). The values were analyzed with Graphad 8.0 and plotted.

[4] = target: T3, cynomolgus monkey OX40 protein (Novoprotein, #CB17) (cynomolgus monkey); assay: ELISA, coated cyno OX40 protein
T3 construct: Bought recombinant protein; also called cyno OX40

[5] = target: T2, human OX40 protein (Acro biosystem, …); assay: ELISA, coated human OX40 protein; remark: listed apart in the source
[6] = target: T1, human OX40 on cells (CHO-K1/hu OX40); assay: FACS, blocking of biotin-human OX40L on CHO-K1/hu OX40 cells
[7] = target: T1, human OX40 on cells (CHO-K1/hu OX40); assay: FACS, CHO-K1/hu OX40 cells; remark: listed apart in the source
Protocol: This example is intended to investigate the in vitro binding activity of OX40×TAA bispecific antibodies obtained in Example 9 to human OX40. The antibody binding assay at the cellular level was performed using a CHO-K1 cell strain overexpressing human OX40 (CHO-K1/hu OX40). Briefly, CHO-K1/hu OX40 cells were digested, resuspended in an F12K complete medium, and washed with PBS, and the cell density was adjusted to 1×10⁶ cells/ml with PBS. The cells were seeded in a 96-well V-bottom plate (Corning, #3894) at 100 μL/well, followed by the addition of test antibodies diluted in a 3-fold gradient at concentrations that were 2 times the final concentrations at 100 μL/well. The cells were incubated at 4° C. for 1 h away from light. Thereafter, the cells in each well were rinsed twice with 100 μL of pre-cooled PBS, and centrifuged at 500 g at 4° C. for 5 min, and then the supernatant was discarded. […] The plate was incubated away from light at 4° C. for 30 min. The cells in each well were rinsed twice with 100 μL of pre-cooled PBS, and centrifuged at 500 g at 4° C. for 5 min, and then the supernatant was discarded. Finally, the cells in each well were resuspended in 200 μL of pre-cooled PBS, and the fluorescence signal values were read using NovoCyte flow cytometer (ACEA Biosciences).

[8] = target: T4, human PD-L1 on MDA-MB-231 cells (human, UniProt Q9NZQ7 19-290); assay: FACS, MDA-MB-231 cells (human PD-L1)
T4 construct: whole, on cells
Protocol: This example is intended to investigate the in vitro binding activity of OX40×TAA bispecific antibodies obtained in Example 9 to tumor-associated antigens (TAAs). […] Briefly, those cells were digested, resuspended in a complete medium, and washed with PBS, and the cell density was adjusted to 1×10⁶ cells/ml with PBS. The cells were seeded in a 96-well V-bottom plate (Corning, #3894) at 100 μL/well, and centrifuged, and then the supernatant was discarded. Then, the test antibodies diluted in a 3-fold gradient were added at 100 μL/well. The cells were incubated at 4° C. for 1 h away from light. Thereafter, the cells in each well were rinsed twice with 100 μL of pre-cooled PBS, and centrifuged at 500 g at 4° C. for 5 min, and then the supernatant was discarded. […] The plate was incubated away from light at 4° C. for 30 min. The cells in each well were rinsed twice with 100 μL of pre-cooled PBS, and centrifuged at 500 g at 4° C. for 5 min, and then the supernatant was discarded. Finally, the cells in each well were resuspended in 200 μL of pre-cooled PBS, and the fluorescence signal values were read using NovoCyte flow cytometer (ACEA Biosciences).

T4 sequence (Q9NZQ7 19-290): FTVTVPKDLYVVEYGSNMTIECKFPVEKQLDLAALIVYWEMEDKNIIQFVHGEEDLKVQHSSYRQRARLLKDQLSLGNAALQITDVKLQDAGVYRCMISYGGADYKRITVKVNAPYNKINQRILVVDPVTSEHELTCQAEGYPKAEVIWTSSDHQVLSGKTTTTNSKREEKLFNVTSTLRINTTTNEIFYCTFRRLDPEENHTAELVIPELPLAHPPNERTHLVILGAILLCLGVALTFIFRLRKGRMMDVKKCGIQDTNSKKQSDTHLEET

B1: PR002055 (antibody, human IgG1, V domains shown)
VH: EVQLLESGGGLVQPGGSLRLSCAASGLTFSSYAMSWVRQAPGKGLEWISAISGGGGSTYYADSVRGRFTISRDNSKNTLYLQMNSLRAEDTAVYYCANGMTGSTDVDYWGQGTLVTVSS
notes: no light chain; also called anti-OX40 HCAb antibody
EC50, HEK293/OX40/NF-kb luciferase reporter [1]: 4.66 nM | Maximum fluorescence signal value, HEK293/OX40/NF-kb luciferase reporter [1]: 141000 luminescence | EC50 [2]: 3.18 nM | Maximum MFI [2]: 2240 MFI | EC50 [3]: < 0.05 nM | EC50 [4]: 0.0452 nM | Maximum OD [4]: 1.74 OD | EC50 [5]: 0.0268 nM | Maximum OD [5]: 1.41 OD | IC50 [6]: 59.9 nM | Maximum inhibition rate (%) [6]: 19%

B2: PR003789 (bispecific antibody, human IgG1, kappa, L234A L235A)
light: DIQMTQSPSTLSASVGDRVTVTCRASQSIYIWLAWYQQKPGKAPNLLIYKASSLETGVPSRFSGSGSGTEFTLTISSLQPDDFATYYCQQYYGSSRTFGQGTKVEIKRTVAAPSVFIFPPSDEQLKSGTASVVCLLNNFYPREAKVQWKVDNALQSGNSQESVTEQDSKDSTYSLSSTLTLSKADYEKHKVYACEVTHQGLSSPVTKSFNRGEC
heavy: EVQLVESGGGLVQPGGSLRLSCAASGFTFSSYWMSWVRQAPGKGLEWVANIKQEGSEKYYVDSVKGRFTISRDNAKNSLYLQMNSLRAEDTAVYYCARDRAVAGAFDIWGQGTMVTVSSASTKGPSVFPLAPSSKSTSGGTAALGCLVKDYFPEPVTVSWNSGALTSGVHTFPAVLQSSGLYSLSSVVTVPSSSLGTQTYICNVNHKPSNTKVDKKVEPKSCDKTHTCPPCPAPEAAGGPSVFLFPPKPKDTLMISRTPEVTCVVVDVSHEDPEVKFNWYVDGVEVHNAKTKPREEQYNSTYRVVSVLTVLHQDWLNGKEYKCKVSNKALGAPIEKTISKAKGQPREPQVYTLPPSREEMTKNQVSLTCLVKGFYPSDIAVEWESNGQPENNYKTTPPVLDSDGSFFLYSKLTVDKSRWQQGNVFSCSVMHEALHNHYTQKSLSLSPGAEPKSSDKTHTPPPPPEVQLLESGGGLVQPGGSLRLSCAASGFTFSSYAMSWVRQAPGKGLEWVSAISGRGGSTFYADSVRGRFTISRDNSKNTLYLQMNSLRAEDTAMYYCVDGTTGTTDVDYWGQGTLVTVSS
notes: IgG-VH tetravalent symmetric structure: PR000265 IgG (anti-PD-L1) with the VH of PR002067 at the C-terminus via linker H1_15; human IgG1 Fc (L234A, L235A, P329G); also called PD-L1xOX40 bispecific antibody
EC50 [7]: 3.98 nM | Maximum MFI [7]: 287000 MFI | EC50 [8]: 1.04 nM

B3: PR000265 (antibody, human IgG1, kappa, N297A, V domains shown)
VH: EVQLVESGGGLVQPGGSLRLSCAASGFTFSSYWMSWVRQAPGKGLEWVANIKQEGSEKYYVDSVKGRFTISRDNAKNSLYLQMNSLRAEDTAVYYCARDRAVAGAFDIWGQGTMVTVSS
VL: DIQMTQSPSTLSASVGDRVTVTCRASQSIYIWLAWYQQKPGKAPNLLIYKASSLETGVPSRFSGSGSGTEFTLTISSLQPDDFATYYCQQYYGSSRTFGQGTKVEIKR
notes: H2L2 parental antibody against PD-L1; also called anti-PD-L1 monoclonal antibody; H2L2 antibody
EC50 [8]: 0.605 nM
